The source of these data is patent publication US20230220042A1 (SHANGHAI JIAO TONG UNIVERSITY SCHOOL OF MEDICINE, published 2023).

One experiment concerns the target T1, Biotin-FcγRIIB (human, UniProt P31994 43-217, limits assumed, biotin-labelled).
T1 construct: Bought, biotin-labelled; used at 1 µg/ml for staining and sorting; also called human FcγRIIB; CD32b
T1 sequence (looked up): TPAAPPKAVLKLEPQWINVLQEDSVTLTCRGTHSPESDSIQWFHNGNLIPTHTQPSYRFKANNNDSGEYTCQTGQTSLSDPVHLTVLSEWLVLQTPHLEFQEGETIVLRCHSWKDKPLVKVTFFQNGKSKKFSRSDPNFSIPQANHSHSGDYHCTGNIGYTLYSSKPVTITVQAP
The experiment in a line: magnetic sorting on biotin-FcγRIIB with unlabelled activating FcγRs, NGS; Library2. The protocol: 3T3 cells were collected by trypsin digestion, and a single cell suspension was prepared. […] The cells were incubated for 15 minutes on ice and then washed twice with MACS buffer and re-suspended in 100 μl MACS buffer. Twenty-five μl anti-Biotin magnetic beads were added, and the cells were incubated for 15 minutes on ice and then washed once with MACS buffer and re-suspended to 500 μl, and added to the LS column put in the magnetic field. The effluent was collected, washed with 3 mL of MACS buffer and collected; The LS column was then removed out of the magnetic field, and 5 mL of MACS buffer was used to rapidly elute the remaining cells from the sorting column to collect positive cells, which are the high I/A ratio cells.
The high-FcγRIIB-affinity cells obtained from the above flow cytometry sorting are further sorted by magnetic-activated sorting. The cells are incubated with the mixture of Biotin-labeled FcγRIIB and non-labeled activating FcγRs, and then the labeled cells are sorted by anti-Biotin magnetic beads. The enrichment ratios after sorting relative to before sorting are analyzed by NGS.

The target of a further experiment is T2, FcγRIIA^131H (human, UniProt P12318 34-217, biotin-labeled).
T2 construct: extracellular domain; Bought protein; also called RIIAH
T2 sequence (looked up): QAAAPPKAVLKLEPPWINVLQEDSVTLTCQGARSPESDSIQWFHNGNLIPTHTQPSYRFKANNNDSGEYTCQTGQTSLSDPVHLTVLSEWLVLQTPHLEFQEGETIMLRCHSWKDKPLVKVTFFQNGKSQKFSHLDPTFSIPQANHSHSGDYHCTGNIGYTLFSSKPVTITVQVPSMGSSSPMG
Put plainly: ELISA, coated antibody, biotin-FcγR.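 On Absorbance value: antibody coated at 2 µg/mL at 100 µL per well.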 In general terms: ELISA stands for enzyme-linked immunosorbent assay.

A further experiment addresses T3, FcγRI (human, UniProt P12314 16-292, biotin-labeled).
T3 construct: extracellular domain; Bought protein; also called CD64
Put plainly: ELISA, coated antibody, biotin-FcγR.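 On Absorbance value: antibody coated at 2 µg/mL at 100 µL per well.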

In the next experiment the target is T4, FcγRIIIA^158F (human, UniProt P08637 17-208, biotin-labeled).
T4 construct: extracellular domain; Bought protein; also called RIIIAF
T4 sequence (P08637 17-208): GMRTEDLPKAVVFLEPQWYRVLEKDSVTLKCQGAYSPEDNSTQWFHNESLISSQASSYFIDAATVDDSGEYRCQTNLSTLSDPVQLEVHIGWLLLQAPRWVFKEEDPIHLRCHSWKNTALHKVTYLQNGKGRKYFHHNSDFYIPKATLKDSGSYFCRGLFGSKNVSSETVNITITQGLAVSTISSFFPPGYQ
The experiment in a line: ELISA, coated antibody, biotin-FcγR.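 On Absorbance value: antibody coated at 2 µg/mL at 100 µL per well.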

The target of a further experiment is T5, FcγRIIA^131R (human, UniProt P12318 34-217, biotin-labeled).
T5 construct: extracellular domain; Bought protein; also called RIIAR
T5 sequence (looked up): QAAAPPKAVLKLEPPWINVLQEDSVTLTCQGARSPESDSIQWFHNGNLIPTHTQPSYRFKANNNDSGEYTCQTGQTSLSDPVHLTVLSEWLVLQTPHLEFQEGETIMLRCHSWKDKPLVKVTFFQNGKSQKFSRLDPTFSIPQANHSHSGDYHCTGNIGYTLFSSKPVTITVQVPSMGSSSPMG
The experiment in a line: ELISA, coated antibody, biotin-FcγR.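 On Absorbance value: antibody coated at 2 µg/mL at 100 µL per well.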

Experiment [1] addresses T6, FcγRIIB (human, UniProt P31994 43-217, biotin-labeled).
T6 construct: extracellular domain; Bought protein; also called CD32b
T6 sequence (looked up): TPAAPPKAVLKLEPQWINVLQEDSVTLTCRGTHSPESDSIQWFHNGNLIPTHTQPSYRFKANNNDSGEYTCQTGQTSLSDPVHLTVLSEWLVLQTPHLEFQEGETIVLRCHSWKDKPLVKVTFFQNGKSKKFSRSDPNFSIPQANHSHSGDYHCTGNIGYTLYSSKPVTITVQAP
Put plainly: ELISA, coated antibody, biotin-FcγR.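 On Absorbance value: antibody coated at 2 µg/mL at 100 µL per well.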

The target in the next experiment is T7, FcγRIIIA^158V (human, UniProt P08637 17-208, biotin-labeled).
T7 construct: extracellular domain; Bought protein; also called RIIIAV; CD16a 158V
T7 sequence (P08637 17-208 F176V): as the sequence (P08637 17-208) above, with F160V counted along it
The experiment in a line: ELISA, coated antibody, biotin-FcγR.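 On Absorbance value: antibody coated at 2 µg/mL at 100 µL per well.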

Experiment [2] concerns the target T6, FcγRIIB. Put plainly: ELISA; relative affinity to FcγRIIB over that to FcγRIIA131R.

T3 sequence (P12314 16-292): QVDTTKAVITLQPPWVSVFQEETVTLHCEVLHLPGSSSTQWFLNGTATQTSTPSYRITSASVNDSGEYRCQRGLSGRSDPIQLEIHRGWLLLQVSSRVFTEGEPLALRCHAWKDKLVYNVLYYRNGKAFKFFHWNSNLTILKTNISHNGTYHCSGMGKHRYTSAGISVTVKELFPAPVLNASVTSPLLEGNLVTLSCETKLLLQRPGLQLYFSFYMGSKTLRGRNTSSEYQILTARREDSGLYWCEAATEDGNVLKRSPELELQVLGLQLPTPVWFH

B1: human IgG2 anti-mouse CD40 surface displayed antibody, Fc mutant H268N (antibody, name in EU numbering)
light chain (with the P2A rest): DTVLTQSPALAVSPGERVTISCRASDSVSTLMHWYQQKPGQQPKLLIYLASHLESGVPARFSGSGSGTDFTLTIDPVEADDTATYYCQQSWNDPWTFGGGTKLELKRTVAAPSVFIFPPSDEQLKSGTASVVCLLNNFYPREAKVQWKVDNALQSGNSQESVTEQDSKDSTYSLSSTLTLSKADYEKHKVYACEVTHQGLSSPVTKSFNRGECGSGATNFSLLKQAGDVEENPG
heavy chain: EVQLVESDGGLVQPGRSLKLPCAASGFTFSDYYMAWVRQAPTKGLEWVASISYDGSSTYYRDSVKGRFTISRDNAKSTLYLQMDSLRSEDTATYYCGRHSSYFDYWGQGVMVTVSSASTKGPSVFPLAPCSRSTSESTAALGCLVKDYFPEPVTVSWNSGALTSGVHTFPAVLQSSGLYSLSSVVTVPSSNFGTQTYTCNVDHKPSNTKVDKTVERKCCVECPPCPAPPVAGPSVFLFPPKPKDTLMISRTPEVTCVVVDVSNEDPEVQFNWYVDGVEVHNAKTKPREEQFNSTFRVVSVLTVVHQDWLNGKEYKCKVSNKGLPAPIEKTISKTKGQPREPQVYTLPPSREEMTKNQVSLTCLVKGFYPSDIAVEWESNGQPENNYKTTPPMLDSDGSFFLYSKLTVDKSRWQQGNVFSCSVMHEALHNHYTQKSLSLSPGKLEPPPSTVSNMATVAVLVVLGAAIVTGAVVAFVMKMRRRNTGGKGGDYALAPGSQTSDLSLPDCKVMVHDPHSLA
notes: as m1; positions are Eu numbers; copies: 2 + 2
As for B1, in the experiment with Biotin-FcγRIIB, the “Enrichment factor (percentage after sorting/percentage before sorting)” value was 2.31, the “Increased factor (mutation enrichment factor/wild-type enrichment factor)” value is 2.79, the “Percentage after sorting/unbinding percentage” value worked out at 662 and the “Percentage before sorting/unbinding percentage” value is 286.

B2: anti-human OX40 IgG2 antibody Mut_28 (P233G/S267E/S298G) (antibody)
heavy: QVQLQESGPGLVKPSGTLSLTCAVSGGSISSSIWWSWVRQPPGKGLEWIGEIHHSGNTNCNPSLKSRVTISIDKSKNQFSLKLTSVTAADTAVYYCARAGTGTTLDYWGQGTLVTVSSASTKGPSVFPLAPCSRSTSESTAALGCLVKDYFPEPVTVSWNSGALTSGVHTFPAVLQSSGLYSLSSVVTVPSSNFGTQTYTCNVDHKPSNTKVDKTVERKCCVECPPCPAPGVAGPSVFLFPPKPKDTLMISRTPEVTCVVVDVEHEDPEVQFNWYVDGVEVHNAKTKPREEQFNGTFRVVSVLTVVHQDWLNGKEYKCKVSNKGLPAPIEKTISKTKGQPREPQVYTLPPSREEMTKNQVSLTCLVKGFYPSDIAVEWESNGQPENNYKTTPPMLDSDGSFFLYSKLTVDKSRWQQGNVFSCSVMHEALHNHYTQKSLSLSPGK
light: EIVLTQSPGTLSLSPGERATLSCRASQSVSGDYLAWYQQKLGQAPRLLIYGASIRATGIPDRFSGSGSGTDFTLTISKLEPEDFAVYYCQQYGSSPLTFGGGTKVEIKRTVAAPSVFIFPPSDEQLKSGTASVVCLLNNFYPREAKVQWKVDNALQSGNSQESVTEQDSKDSTYSLSSTLTLSKADYEKHKVYACEVTHQGLSSPVTKSFNRGEC
notes: Substitutions in Eu numbering; entries include an unstated signal peptide
Consider B2, for which, in the experiment with FcγRIIA^131H, the Absorbance value came to 0.14 A650 and the “Relative binding affinity RIIAH/G1” value was determined as 0.24 ratio. Moreover, in the experiment with FcγRI, the Absorbance value is 0.13 A650 and the “Relative binding affinity RI/G1” value worked out at 0.05 ratio. Moreover, in the experiment with FcγRIIIA^158F, the Absorbance value was found to be 0.08 A650 and the “Relative binding affinity RIIIAF/G1” value came out at 0.44 ratio. For the same molecule, in the experiment with FcγRIIA^131R, the Absorbance value stood at 0.35 A650 and the “Relative binding affinity RIIAR/G1” value is 1.35 ratio. Also, in the experiment with FcγRIIB [1], the Absorbance value came out at 0.88 A650, the “Increased factor of RIIB binding compared with wild-type IgG2” value (“Increased factor of RIIB binding” below) is 11.8 fold and the “Relative binding affinity RIIB/G1” value worked out at 1.17 ratio. Besides, in the experiment with FcγRIIIA^158V, the Absorbance value came out at 0.08 A650 and the “Relative binding affinity RIIIAV/G1” value was determined as 0.08 ratio. For the same molecule, the RIIB/RIIAR in the experiment with FcγRIIB [2] amounted to 0.87 ratio.

B3: anti-human OX40 IgG2 antibody Mut_8 (V266L/L328W) (antibody, name in EU numbering)
heavy: QVQLQESGPGLVKPSGTLSLTCAVSGGSISSSIWWSWVRQPPGKGLEWIGEIHHSGNTNCNPSLKSRVTISIDKSKNQFSLKLTSVTAADTAVYYCARAGTGTTLDYWGQGTLVTVSSASTKGPSVFPLAPCSRSTSESTAALGCLVKDYFPEPVTVSWNSGALTSGVHTFPAVLQSSGLYSLSSVVTVPSSNFGTQTYTCNVDHKPSNTKVDKTVERKCCVECPPCPAPPVAGPSVFLFPPKPKDTLMISRTPEVTCVVVDLSHEDPEVQFNWYVDGVEVHNAKTKPREEQFNSTFRVVSVLTVVHQDWLNGKEYKCKVSNKGWPAPIEKTISKTKGQPREPQVYTLPPSREEMTKNQVSLTCLVKGFYPSDIAVEWESNGQPENNYKTTPPMLDSDGSFFLYSKLTVDKSRWQQGNVFSCSVMHEALHNHYTQKSLSLSPGK
light: EIVLTQSPGTLSLSPGERATLSCRASQSVSGDYLAWYQQKLGQAPRLLIYGASIRATGIPDRFSGSGSGTDFTLTISKLEPEDFAVYYCQQYGSSPLTFGGGTKVEIKRTVAAPSVFIFPPSDEQLKSGTASVVCLLNNFYPREAKVQWKVDNALQSGNSQESVTEQDSKDSTYSLSSTLTLSKADYEKHKVYACEVTHQGLSSPVTKSFNRGEC
notes: as for B2
B3: in the experiment with FcγRIIA^131H, the Absorbance value is 0.52 A650 and the “Relative binding affinity RIIAH/G1” value turned out to be 0.9 ratio. Further, in the experiment with FcγRI, the Absorbance value turned out to be 0.14 A650 and the “Relative binding affinity RI/G1” value worked out at 0.05 ratio. Also, in the experiment with FcγRIIIA^158F, the Absorbance value turned out to be 0.08 A650 and the “Relative binding affinity RIIIAF/G1” value is 0.44 ratio. In the experiment with FcγRIIA^131R, the Absorbance value is 0.34 A650 and the “Relative binding affinity RIIAR/G1” value was 1.3 ratio. In the experiment with FcγRIIB [1], the Absorbance value came out at 1.07 A650, the “Increased factor of RIIB binding” value worked out at 14.3 fold and the “Relative binding affinity RIIB/G1” value was 1.42 ratio. Besides, in the experiment with FcγRIIIA^158V, the Absorbance value worked out at 0.07 A650 and the “Relative binding affinity RIIIAV/G1” value turned out to be 0.07 ratio. The RIIB/RIIAR in the experiment with FcγRIIB [2] turned out to be 1.09 ratio.

B4: anti-human OX40 IgG2 antibody Mut_30 (V234Q/V266L/S267E/H268S/E269V) (antibody)
heavy: QVQLQESGPGLVKPSGTLSLTCAVSGGSISSSIWWSWVRQPPGKGLEWIGEIHHSGNTNCNPSLKSRVTISIDKSKNQFSLKLTSVTAADTAVYYCARAGTGTTLDYWGQGTLVTVSSASTKGPSVFPLAPCSRSTSESTAALGCLVKDYFPEPVTVSWNSGALTSGVHTFPAVLQSSGLYSLSSVVTVPSSNFGTQTYTCNVDHKPSNTKVDKTVERKCCVECPPCPAPPQAGPSVFLFPPKPKDTLMISRTPEVTCVVVDLESVDPEVQFNWYVDGVEVHNAKTKPREEQFNSTFRVVSVLTVVHQDWLNGKEYKCKVSNKGLPAPIEKTISKTKGQPREPQVYTLPPSREEMTKNQVSLTCLVKGFYPSDIAVEWESNGQPENNYKTTPPMLDSDGSFFLYSKLTVDKSRWQQGNVFSCSVMHEALHNHYTQKSLSLSPGK
light: EIVLTQSPGTLSLSPGERATLSCRASQSVSGDYLAWYQQKLGQAPRLLIYGASIRATGIPDRFSGSGSGTDFTLTISKLEPEDFAVYYCQQYGSSPLTFGGGTKVEIKRTVAAPSVFIFPPSDEQLKSGTASVVCLLNNFYPREAKVQWKVDNALQSGNSQESVTEQDSKDSTYSLSSTLTLSKADYEKHKVYACEVTHQGLSSPVTKSFNRGEC
notes: as for B2
In the case of B4, in the experiment with FcγRIIA^131H, the Absorbance value amounted to 0.18 A650 and the “Relative binding affinity RIIAH/G1” value amounted to 0.32 ratio. Also, in the experiment with FcγRI, the Absorbance value turned out to be 0.12 A650 and the “Relative binding affinity RI/G1” value amounted to 0.05 ratio. Besides, in the experiment with FcγRIIIA^158F, the Absorbance value stood at 0.06 A650 and the “Relative binding affinity RIIIAF/G1” value came out at 0.33 ratio. Moreover, in the experiment with FcγRIIA^131R, the Absorbance value stood at 0.26 A650 and the “Relative binding affinity RIIAR/G1” value amounted to 1.01 ratio. Also, in the experiment with FcγRIIB [1], the Absorbance value amounted to 0.8 A650, the “Increased factor of RIIB binding” value worked out at 10.7 fold and the “Relative binding affinity RIIB/G1” value was found to be 1.06 ratio. In the experiment with FcγRIIIA^158V, the Absorbance value was found to be 0.06 A650 and the “Relative binding affinity RIIIAV/G1” value is 0.07 ratio. The RIIB/RIIAR with FcγRIIB [2] came to 1.05 ratio.
